{
  "source": "paper PMC13378486",
  "about": "“Design and Synthesis of Peptide‐Polyester Conjugates for Cell‐Mediated Scaffold Degradation” (Advanced Healthcare Materials, 2026)",
  "key": {"[1]": {"test_system": "Collagenase Type I (Clostridium histolyticum)", "assay": "In vitro degradation of peptide-PCL samples with collagenase", "type": "in vitro ADME", "details": "37°C, mean ± SD; for Mass loss in collagenase: 2 mg/mL collagenase in ZB, 21 days, washed, lyophilized, weighed, n = 4; for Cumulative Cy3 release / Cumulative Cy3 release as % of the total Cy3 in the sample: 10 mm solvent-cast disks, 2 mg/mL collagenase in 1X ZB, 5% CO2, 21 days, fluorescence ex 550/em 580 nm, n = 6", "method": "(§1) Samples were pinned to silicone elastomer‐coated 24‐well plates using 0.1 mm dissection pins. The degradation behavior of the samples in the presence of collagenase was assessed by immersing pinned samples in 2 mg/mL collagenase in 1X Zymogram Developing Buffer (ZB). Solutions (1 mL) were collected and changed after the first day of incubation then after every 3–4 days. Samples were placed in an incubator (37°C, 5% CO2) for up to 21 days. Samples were also exposed to ZB as a baseline control.\n(§2) Samples were weighed before and after 21 days of incubation with ZB or collagenase. After the 21‐day incubation period, samples were collected and washed three times with ultrapure water to remove residual enzymes or salts. Following washing, samples were lyophilized and subsequently weighed to determine the final mass. Percent mass loss was calculated based on the difference between initial and final masses."}, "[2]": {"type": "in vitro ADME", "method": "as §1, §2"}, "multiple cell types": {"test_system": "multiple cell types", "details": "prior peptide screening methods; cited from earlier work", "description": "We also included a scrambled version of Fast (LTRLMEKRRKV; ScrFast) in which the positions of uncharged amino acids (L, M, V) were exchanged with the charged amino acids (E, K, R). We quantified degradation of these four peptides with different mac ..."}},
  "data": [
    {"substance": "CK(Cy3)KRVKRRL↓LMETC [Fast‐PCL, linear PCL‐PEG‐peptide‐PEG‐PCL conjugate of Cy3‐modified Fast with maleimide‐functionalized PCL (25 kDa) / PEG (5 kDa); tested as solvent‐cast disks with RGDS‐PCL]", "values": [
      {"measurement": "Mass loss in collagenase", "setting": "[1]", "value": "22.1% ± 1.2%"},
      {"measurement": "Cumulative Cy3 release", "setting": "[1]", "value": "20.38 ± 2.17", "unit": "nmol"},
      {"measurement": "Cumulative Cy3 release as % of the total Cy3 in the sample", "setting": "[1]", "value": "25.77% ± 3.70%"},
      {"measurement": "Mass loss in ZB", "setting": "[2]", "value": "16.5% ± 1.6%"}
    ]},
    {"substance": "PPDKTSPEPA [Control]", "values": [
      {"measurement": "Peptide degradation behavior in prior peptide screening", "setting": "multiple cell types", "value": "negligible degradation behavior"}
    ]},
    {"substance": "CK(Cy3)LTRLMEKRRKVC [ScrFast‐PCL, linear PCL‐PEG‐peptide‐PEG‐PCL conjugate of Cy3‐modified ScrFast; tested as solvent‐cast disks with RGDS‐PCL]", "values": [
      {"measurement": "Mass loss in collagenase", "setting": "[1]", "value": "18.9% ± 3.8%"},
      {"measurement": "Cumulative Cy3 release", "setting": "[1]", "value": "8.70 ± 0.92", "unit": "nmol"},
      {"measurement": "Cumulative Cy3 release as % of the total Cy3 in the sample", "setting": "[1]", "value": "11.31% ± 1.01%"},
      {"measurement": "Mass loss in ZB", "setting": "[2]", "value": "15.2% ± 7.8%"}
    ]}
  ]
}
